This note sets out measurements from patent US20210063414A1, “METHODS FOR PREVENTING AND/OR TREATING BONE LOSS CONDITIONS BY MODULATING IRISIN” (Dana-Farber Cancer Institute, Inc., priority 2018, published 2021).

Holding throughout (assay): Crosslinking/co-immunoprecipitation/mass spectrometry (TMT quantitative proteomics) to identify irisin receptors
Holding throughout (format): binding

Experiment [1] has as its target T1, MLO-Y4 cell surface proteins (Mus musculus, UniProt Q8K273).
T1 construct: endogenous in cells; host or cells: MLO-Y4
T1 sequence (Q8K273 1-131): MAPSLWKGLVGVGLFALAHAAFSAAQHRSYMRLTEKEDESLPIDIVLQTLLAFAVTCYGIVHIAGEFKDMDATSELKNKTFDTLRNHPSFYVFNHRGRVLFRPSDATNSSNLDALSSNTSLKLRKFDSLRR
The following applies: TMT ratio, Mmgt1 Membrane magnesium transporter 1. In short, it runs like this:
(§1)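 Mouse MLO-Y4 cells were switched to serum-free FreeStyle medium for 4 h, chilled, then exposed to 10 nM His-tagged irisin (or adipsin as control) for 20 min. Cells were crosslinked with 1.5 mM DTSSP (30 min, ice), and bound proteins were pulled down on Ni-NTA and eluted with 250 mM imidazole. Eluates were separated by SDS-PAGE, trypsin-digested in gel, TMT 6-plex labelled and quantified by MS3-based LC-MS/MS on an Orbitrap Fusion Lumos.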

Experiment [2] concerns the target T2, MLO-Y4 cell surface proteins (Mus musculus, UniProt P62737).
T2 construct: endogenous in cells; host or cells: MLO-Y4
Conditions: co-precipitated protein Acta2 (ACTA_MOUSE). The method, boiled down: as §1

Experiment [3] addresses T3, MLO-Y4 cell surface proteins (Mus musculus, UniProt Q9DCW4).
T3 construct: endogenous in cells; host or cells: MLO-Y4
T3 sequence (Q9DCW4 1-255): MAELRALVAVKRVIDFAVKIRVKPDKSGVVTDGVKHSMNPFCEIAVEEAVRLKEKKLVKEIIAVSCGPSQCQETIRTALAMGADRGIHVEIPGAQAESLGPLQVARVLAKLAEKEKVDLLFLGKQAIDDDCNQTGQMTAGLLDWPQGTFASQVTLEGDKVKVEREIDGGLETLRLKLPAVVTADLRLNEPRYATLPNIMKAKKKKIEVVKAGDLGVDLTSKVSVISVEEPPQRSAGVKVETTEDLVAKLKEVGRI
Conditions: co-precipitated protein Etfb (ETFB_MOUSE). In short, it runs like this: as §1

Experiment [4] concerns the target T4, MLO-Y4 cell surface proteins (Mus musculus, UniProt Q08189).
T4 construct: endogenous in cells; host or cells: MLO-Y4
T4 sequence (Q08189 1-693): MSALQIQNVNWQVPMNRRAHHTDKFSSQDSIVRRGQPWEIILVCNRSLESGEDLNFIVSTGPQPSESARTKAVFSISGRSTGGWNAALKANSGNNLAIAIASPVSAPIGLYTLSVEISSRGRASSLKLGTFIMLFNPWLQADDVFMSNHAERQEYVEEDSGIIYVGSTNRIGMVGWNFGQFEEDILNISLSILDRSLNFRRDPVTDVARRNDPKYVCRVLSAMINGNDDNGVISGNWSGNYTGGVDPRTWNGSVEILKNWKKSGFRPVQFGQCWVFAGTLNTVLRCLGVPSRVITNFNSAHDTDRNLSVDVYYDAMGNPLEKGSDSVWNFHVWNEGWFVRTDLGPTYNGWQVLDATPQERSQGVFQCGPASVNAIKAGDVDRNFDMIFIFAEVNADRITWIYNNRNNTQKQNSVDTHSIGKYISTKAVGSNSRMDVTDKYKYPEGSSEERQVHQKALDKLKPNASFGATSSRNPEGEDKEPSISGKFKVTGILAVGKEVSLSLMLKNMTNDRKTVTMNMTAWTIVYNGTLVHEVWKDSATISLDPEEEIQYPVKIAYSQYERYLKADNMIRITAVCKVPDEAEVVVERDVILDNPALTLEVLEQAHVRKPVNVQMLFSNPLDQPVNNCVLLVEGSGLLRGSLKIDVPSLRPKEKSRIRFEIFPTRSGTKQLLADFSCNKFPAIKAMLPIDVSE
The following applies: co-precipitated protein Tgm3 (TGM3_MOUSE). In short, it runs like this:
as §1

B1: irisin: secreted cleaved form of FNDC5; recombinant human/mouse irisin with C-terminal his tag produced in HEK293 cells (protein)
chain: DSPSAPVNVTVRHLKANSAVVSWDVLEDEVVIGFAISQQKKDVRMLRFIQEVNTTTRSCALWDLEEDTEYIVHVQAISIQGQSPASEPVLFKTPREAEKMASKNKDEVTMKE
modifications: left off: small tags and cut ends
notes: secreted cleaved form of FNDC5; recombinant human/mouse irisin with C-terminal his tag produced in HEK293 cells
B1: the irsin/adipsin in experiment [1] was 2.94. Further, the TMT signal-to-noise ratio in experiment [2] came to 107.601; in experiment [3], 409.026; in experiment [4] it was 45.8379. Besides, the “irisin/adipsin TMT signal-to-noise ratio” value in experiment [2] was determined as 0.298; in experiment [3], 0.560; in experiment [4], 0.167.
